Measurements as given in the nanobody polyreactivity screen of Harvey et al. (2022).

Assay: yeast display, Sf9 membrane polyspecificity reagent, FACS + sequencing; frameworks hold sequencing errors
Summary of the method: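 Genes from sorted yeast were amplified by colony PCR, read by MiSeq 2 × 250 sequencing and filtered on CDR length. These cells carried a synthetic nanobody library in Saccharomyces cerevisiae BJ5465 and were sorted by FACS into low and high (top ~1%) gates on anti-HA and streptavidin fluorescence. Polyreactivity is labelled according to the gate of origin.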

| Sequence | polyreactivity (PSR sort gate) |
| --- | --- |
| QVQLVESGGGLVQAGGSLRLSCAASGNTFIRNVMGWYRQAPGKERELVAGSRTGGSTFYADSVKGRFTISRDNAKNTVYLQMNSLKPEDTAVYYCNADVGDEGNLPYVIRPMDYWGQGTQVTVSS | low polyreactivity |
| QVQLVESGGGLVQAGGSLRLSCAASGNTFKGYAMGWYRQAPGKERELVAAISWSGSSTYYADSVKGRFTISRDYAKNTVYLQMNILKPEDTAVYYCNRKYLGRYASVYGYGYWGQGTQVTVSS | high polyreactivity |
| QVQLVESGGGLVQAGGSLRLSCAASGNTFLIYAMGWYRQAPGKERELVAGITSSGSTYYADSVKGRFTISRDNAKNTVYLQMNSLKPEDTAVFYCAAEYIFYLYYDTAELYDYWGQGTQVTVSS | low polyreactivity |
| QVQLVESGGGLVQAGGSLRLSCAASGNTFLRYAMGWYRQAPGKERELVAAISRSGGSTYYADSVKGRFTISRDNAKNTVYLQMNSLKPEDTAVYYCATRVYFSPYRYDYWGQGTQVTVSS | high polyreactivity |
| QVQLVESGGGLVQAGGSLRLSCAASGNTFLYYSMGWYRQAPGKEMELVASINLSDGSTYYADSVKGRFTISRDNAKNTVYFQMNSLKPEDTAVYYCAAVYGGYTIYDYWGQGTQVTVSS | low polyreactivity |
| QVQLVESGGGLVQAGGSLRLSCAASGNTFNENAMGWYRQSPGKERELVAAITSSGVSTFYADSVKGRFTISRDNAKNTVYLQMNSLKPEDTAVYYCAAEYYELDEYTGDYWVGSDYWGQGTQVTVSS | low polyreactivity |
| QVQLVESGGGLVQAGGSLRLSCAASGNTFNLYAMGWYRQAPGKERELVASMTSGGGTNYADSVKGRFTISRDNAKNTVYLQMNSLKPEDTAFFYCAATDWFSEYYWGQGTQVTVSS | low polyreactivity |
| QVQLVESGGGLVQAGGSLRLSCAASGNTFNVYAMGWYRQAPGKERELVAAITLSGGSTYYADSVKGRFTFSRDNAKNTVYLQMNSLKPEDTAVYYCNAEDDGTDYDYWGQGTEVTVSS | low polyreactivity |
| QVQLVESGGGLVQAGGSLRLSCAASGNTFNYNAMGWYRQAPGKERELVAAITSSGGSTYYADSVKGRFTISRDYAKNTVYLQMNSLKPDDTAVYYCAADLWQDSYSYWFDYWGQGTQVTVSS | high polyreactivity |
| QVQLVESGGGLVQAGGSLRLSCAASGNTFPVYAMGWYRKASGKERELVATITSGGSTNYADSVKGRFTFSRDNAKNTVYLQMNSLKPEDTAVYYCARRAVYSKRRYDYWGHGTQVTVSS | low polyreactivity |
| QVQLVESGGGLVQAGGSLRLSCAASGNTFPVYAMGWYRQASGKERELVATITSGGSTNYADSVKGRFTISRDNAKNTVYLQMNSLKQEDTAVYYCARRAVYSKRRYDYWGQGTQVTVSS | low polyreactivity |
| QVQLVESGGGLVQAGGSLRLSCAASGNTFQDYAMGWYRQAPGKERELVAAITQSGGSTFYADSVKGRFTISRDNAKNTVYLQMNSLKPEDTAVYYCATRTRYPRYYYWGQGTQVTVSS | high polyreactivity |
| QVQLVESGGGLVQAGGSLRLSCAASGNTFQWYVMGWYRQAPGKERELVAAITTRGGSTYYADSVKGRFTISRDNAKNTVYLQMNSLKPEDTAVYYCAKDWYASWYTKYDYWGQGTQVTVSS | low polyreactivity |
| QVQLVESGGGLVQAGGSLRLSCAASGNTFRAYAMGWYRQAPGKERELVATITWSGGITDYADSVKGRFTISRDNAKNTVYLQMNSLKPEDTAVYYCAARSYRWWNFNYWGQGTQVTVSS | high polyreactivity |
| QVQLVESGGGLVQAGGSLRLSCAASGNTFREYGMGWYRQAPGKERELVAAISSTGSTNYADSVKGRFTISRDNAKNTVYLQMNSLKPEDTAVYYCNRDRVWGSGVRTRGDYWGQVTQVTVSS | low polyreactivity |
| QVQLVESGGGLVQAGGSLRLSCAASGNTFRLYGMGWYRQAPGKERELVAAIRSGDRTYYADSVKGRFTISRDNAKNTVYLQMNSLKPEDTAVYYCAARVNLSKLFGYWGQGTQVTVSS | high polyreactivity |
| QVQLVESGGGLVQAGGSLRLSCAASGNTFRRYAMGWYRQAPGKERELVAAISYRGGSTYYADSVKGRFTISRDNAQNTVYLQMNSLKPEDTAVSYCNARFATSVLYDYWGQGTQVTVSS | high polyreactivity |
| QVQLVESGGGLVQAGGSLRLSCAASGNTFRYYAMGWYRQAPGKERELVAAISGDGGSTYYADSVKGRFTISRDNAKNTVYLQMNSLKPEDTAVYYCNKAGRRRYRESDYWGQGTQVTVSS | high polyreactivity |
| QVQLVESGGGLVQAGGSLRLSCAASGNTFSDYAMGWYRQAPGKERELVAAISSSGVRTYYADSVKGRFTISRDNAKNTVYLQMNSLKPEDTAVYYCNAGYVRRYYPASGYGYWGQGTQVTVSS | high polyreactivity |
| QVQLVESGGGLVQAGGSLRLSCAASGNTFSPNAMGWYRQAPGKERELVAALDSRDGITYYADSVKGRFTISRDNAKNTVYLQMNSLKPEDPAVYYCNAEGSYPDVSPVLGYDYWGQGTQVTVSS | low polyreactivity |
| QVQLVESGGGLVQAGGSLRLSCAASGNTFSQYAMGWYRQAPGKERELLAAISGSGGDTYYADSVKGRFTISRDNAKNTVYLQMNIMKPEDTAVYYCNADQESVFYEDYDYWGQGTQVTVSS | low polyreactivity |

| Sequence | polyreactivity (PSR sort gate) |
| --- | --- |
| QVQLVESGGGLVQAGGSLRLSCAASGNTFSSNAMGWYRQAPGKERELVAGITKSGGRTYYADSVKGRFTISRDNAKNTVSLQMNSLKPEDTAVYYCAAVGSTVFGTRYYYWGQGTQVTVSS | high polyreactivity |
| QVQLVESGGGLVQAGGSLRLSCAASGNTFSYYAMGWYRQAPGKEREFVAAIRKSGASTYYADSVKGRFTISRDNAKNTVYLQMNSLKPEDTAVYYCAADGQVSYALGFDYWGQGTQVTVSS | high polyreactivity |
| QVQLVESGGGLVQAGGSLRLSCAASGNTFTRNTMGWYRQAPGKERELVASISLSGASTYYADSVKGRFTISRDNAKNTVYLQMNSLKPEDTAVYYCAKRRSYGYYRAYNYWGQGTQVTVSS | high polyreactivity |
| QVQLVESGGGLVQAGGSLRLSCAASGNTFTTNAMGWYRQAPGKERELVAAIRWRADSTYYADSVKGRFTISRDNAKNTVYLQMNSLKPEDTAVYYCASRYSLRYYYWGQGTQVTVSS | low polyreactivity |
| QVQLVESGGGLVQAGGSLRLSCAASGNTFVPYAMGWYIQAPRKEREFVAAISSTSGSTYYADSVKGRITISRDNAKNTVYLQMNSLKPEDTAVYYCATKRPYSSKRYKYWKVDYWGQGTQVTVSS | high polyreactivity |
| QVQLVESGGGLVQAGGSLRLSCAASGNTFVRYAMGWYRQAPGKERELVAAITRSGSSTYYADSVKGRFTISRDNAKNTVYLQMNSLKPEDTAVYYCAAYSWYYAGYDYWGQGTQVTVSS | high polyreactivity |
| QVQLVESGGGLVQAGGSLRLSCAASGNTFVYNDMGWSRQAPGKERELVADIRYSGSTYYADSVMGRFTISRDNAKNTVYLQMNSLKPEDTAVYYCAKAYYVLSWMGYWGQGTPVTVSS | low polyreactivity |
| QVQLVESGGGLVQAGGSLRLSCAASGNTFWLNAMGWYRQAPGKERELVASISYSGASTYYADSVKGRFTISRDNAKNTVYFQMNSLKPEDTAVYYCNTDGDDFFHVIYDYWGQGTQVTVSS | low polyreactivity |
| QVQLVESGGGLVQAGGSLRLSCAASGNTFYANVMGWYRQAPGKERELVASITWSGGSTYYADSVKGRFTISRDNAKNTVYLQMNSLKPEDTAVYYCATSGDRLVWGQGTQVTVSS | low polyreactivity |
| QVQLVESGGGLVQAGGSLRLSCAASGNTFYAYAMGWYRQAPGKERELVASITLSGDSTYYADSVKGRFTISRDNAKNSVYLQMSSLIPEDTAVYYCAGVYTYPLGYYHYTYDYWGQGTQVTVSS | low polyreactivity |
| QVQLVESGGGLVQAGGSLRLSCAASGNTFYGYAMGWYRQAPGKERELVAAIRGSDGITFYADSVKGRFTISRDNAKNTVYLQMNSLKPEDTAVYYCAKDTYRSPRHDYGYWGQGTQVTVSS | low polyreactivity |
| QVQLVESGGGLVQAGGSLRLSCAASGNTFYINAMGWYRQAPGKERELVAAINYSGDSTYADSVKGRFTISRDNAKNTVYLQMNSLKPEDSAVYYCAADWYFSVYIDYDTEYDYWGQGTQVTVSS | low polyreactivity |
| QVQLVESGGGLVQAGGSLRLSCAASGNTFYINAMGWYRQAPGKERELVAAINYSGESTYADSVKGRFTISRDNAKNTVYFQMNSLKPEDTAVYYCAADWYFSVYIDYDTEYDYWGQGTQVTVSS | low polyreactivity |
| QVQLVESGGGLVQAGGSLRLSCAASGNTFYPYAMGWYRQAPGKERELVATIRGSDDSTYYADSVKGRFTISRDNAKNTVYLQMNSLKPEDTAVYDCAADDVVSTFLRGYVRYDYWGQGTQVTVSS | high polyreactivity |
| QVQLVESGGGLVQAGGSLRLSCAASGNTFYRYAMGWNRQAPGKERELVAAISNGGSTNYADSVKGRFTISRDNAKNTVYLQMNSLKPEDSAVYYWAAANTRRYTHGFWGHGTQVTVSS | high polyreactivity |
| QVQLVESGGGLVQAGGSLRLSCAASGNTFYVNVMGWYRPAPGKEREFVAAISTRGVSTSYADSVKGRFTISRDNAKNTVYFQMNSLKPEDTAVYYGAARYYYRDWVGIISTYYYWGQGTQVTVSS | high polyreactivity |
| QVQLVESGGGLVQAGGSLRLSCAASGNTFYWNAMGWYRQAAGKERELVAAISTTGVSTYYADSVKGRFTISRDNAKNTVYLQMNSLKPEDTAVYYCATVSYYDRYDYDYWGQGTQVTVSS | low polyreactivity |
| QVQLVESGGGLVQAGGSLRLSCAASGNTINKYAMGWYRQAPGKERELVAAITRSGGSTYYADSVKGRFTISRDKAKNTVYLQMNSLKPEDTAVYYCAAAYWILYYPIDQAFDYWGQGTQVTVSS | low polyreactivity |
| QVQLVESGGGLVQAGGSLRLSCAASGNTLLSYAMGWYRQAPGKEWELVAAISIDGSTIYADSVKGRFTISRDNAKNTVYLQMNSLKPEDTAVYYCNADRTPFAEMDYWGQGTQVTVSS | low polyreactivity |
| QVQLVESGGGLVQAGGSLRLSCAASGNTLNYYTMGWYRQAPGKERELVAAISSSGGSTYYADSVKGRFTISRDNAKNTVYLQMNSLKPEDTAVYYCAVLFYNNFGYWGQGTQVTVSS | low polyreactivity |
